# Test results taken from patent US20040106173A1, “Bot1: target for antifungal agents” (The University of Miami, priority 2001, published 2004).
# T1: GST-tagged Tea1p (pESP-GSTtea1+) (Schizosaccharomyces pombe, UniProt P87061 1-1147)
# T1 construct: also called GST-Tea1p
# T1 sequence (looked up): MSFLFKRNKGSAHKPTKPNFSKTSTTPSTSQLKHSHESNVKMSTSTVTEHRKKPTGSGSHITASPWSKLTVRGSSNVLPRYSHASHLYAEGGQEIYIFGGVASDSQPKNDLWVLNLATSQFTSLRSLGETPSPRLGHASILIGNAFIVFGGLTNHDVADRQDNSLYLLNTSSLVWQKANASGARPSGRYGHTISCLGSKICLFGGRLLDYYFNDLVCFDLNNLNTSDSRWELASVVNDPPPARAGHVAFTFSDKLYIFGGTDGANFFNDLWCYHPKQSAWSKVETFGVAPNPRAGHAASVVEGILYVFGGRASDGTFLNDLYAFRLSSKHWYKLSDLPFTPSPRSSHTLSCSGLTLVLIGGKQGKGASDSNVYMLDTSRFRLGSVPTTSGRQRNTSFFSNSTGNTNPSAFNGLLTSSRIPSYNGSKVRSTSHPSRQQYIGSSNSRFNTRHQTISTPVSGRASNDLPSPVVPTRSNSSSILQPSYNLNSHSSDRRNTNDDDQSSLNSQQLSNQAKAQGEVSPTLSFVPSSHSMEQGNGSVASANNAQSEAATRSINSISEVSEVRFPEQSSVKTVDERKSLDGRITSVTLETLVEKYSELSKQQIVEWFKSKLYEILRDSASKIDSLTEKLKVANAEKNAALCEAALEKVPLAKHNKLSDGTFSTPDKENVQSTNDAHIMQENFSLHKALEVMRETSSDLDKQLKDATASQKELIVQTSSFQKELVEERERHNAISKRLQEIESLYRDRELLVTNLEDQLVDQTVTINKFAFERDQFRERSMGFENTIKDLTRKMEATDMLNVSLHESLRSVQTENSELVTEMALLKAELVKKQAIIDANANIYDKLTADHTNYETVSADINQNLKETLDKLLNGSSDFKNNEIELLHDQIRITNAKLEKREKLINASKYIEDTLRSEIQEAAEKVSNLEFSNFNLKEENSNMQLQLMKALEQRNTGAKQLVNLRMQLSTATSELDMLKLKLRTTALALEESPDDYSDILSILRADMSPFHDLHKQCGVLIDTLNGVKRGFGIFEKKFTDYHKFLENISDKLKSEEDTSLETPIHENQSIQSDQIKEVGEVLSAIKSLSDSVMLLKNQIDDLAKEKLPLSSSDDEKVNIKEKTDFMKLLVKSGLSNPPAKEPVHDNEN
# B1: Bot1p fused to the GAL4 activation domain (pACT-bot1) (other, not shown: large carriers)
# chain: MRNSVEFSQLGLKTAFNLSQNKTYTSAVKKQFFSTGAFLSNGGNIDLNKHTQKNIDSKYVACNSRSVTPPNDVASSVSKNTLRHKQRLMMAQWLMSPEVQKAKSSSSGNVGLGPNTNQPFPLNPFFKPPRPISHSLRMKITDEYLQGASIEVLARKFNTSPQRIEALIKLRRINDEFEEKKKPILHSYNEVMEKMLNACTKPEMMQFNDGNDIPLRSNPVSLWKSLPEGETFTPQEAAKILKWPSIEELNMRQNATHFHKTSDEHKDLNEDEELISSSPSEVGKRVFRLIDLSTGNVYRRDTGGDIYVKRKKSTT
# notes: also called bot1+ clones
# B2: HA-tagged Cdc23p (pRep41-HA3cdc23) (other, fission yeast, UniProt O42709 1-593, looked up, not shown: small tags and cut ends)
# chain: MHDPFIAEENDLDLEEKRLQRQLNEIQEKKRLRSAQKEASSENAEVIQVPRSPPQQVRVLTVSSPSKLKSPKRLILGIDKGKTGKDVSLGKGPRGPLPKPFHERLAEARNQERKRSDKLKTMKKNRKQSFQRKRNILEDGKSEEEKFPMKCDEIDPYSRQAIVIRYISDEVAKENIGGNQVYLIHQLLKLVRAPKFEAPEVDNYVVMGIVASNSGTRETVNGNKYCMLTLTDLKWQLECFLFGKAFERYWKIQSGTVIALLNPEVLKPKNPDIGRFSLKLDSEYDVLLEIGRSKHLGYCSSRRKSGELCKHWLDKRAGDVCEYHVDLAVQRSMSTRTEFASSMATMHEPRARREKRFRGQGFQGYFAGEKYSAIPNAVAGLYDAEDAVQTERERKERYKKQRAQAEREREILVRLSKRCCASSSSSSNSNNLSTGMSMRTLGHQYLNLQGSGVKNLHDKGNPTALSKDSEIDSSTKKPSVLASFNASIMNPKSSLPSFSNSAILGTNDAASGTPVPQDTTSTKVSPAVVFTSSPRIFSPQSLRKIGFDPTHSADASTTHSTATGLSRSGSLKNIKFRYEFTESDDEDDLEIVP
# notes: also called HA-Cdc23p; HA-Cdc23
# Tests used:
# [1] = system: microtubule cytoskeleton of fission yeast cells expressing Myc-Bot1; experiment: Microtubule depolymerization and Bot1p localization by immunofluorescence in cells expressing Myc-Bot1; format: cell-based, Schizosaccharomyces pombe; details: cells expressing Myc-Bot1 exposed for 45 min
# Procedure: Cells in liquid cultures were grown exponentially for at least eight generations, at densities below 10^7 cells/ml, before the start of the experiment. Immunofluorescent staining was performed as described (46). Cells were fixed in methanol and stained with the following primary antibodies: a rabbit polyclonal antibody anti-Tea1p (40, a kind gift of Dr. P. Nurse, ICRF London), a rabbit polyclonal antibody anti-Orb6p, a monoclonal anti-hemagglutinin (HA) antibody (Covance), and a chicken polyclonal anti-Myc antibody (Molecular Probes). For actin and microtubule staining, a monoclonal anti-actin antibody (Amersham Pharmacia Biotech) and a monoclonal anti-tubulin antibody (TAT1; a kind gift of Dr. K. Gull), respectively, were used A CY3-conjugated anti-mouse, a CY3-conjugated anti-rabbit, or an FITC-conjugated anti-mouse were used as secondary antibodies (Sigma). Cells were immobilized on coverslips using PBS-containing antifade (Molecular Probes) as mounting medium and photographed using a Zeiss Axiophot microscope or a Leica DMRA microscope, equipped with Metamorph 1.7.4 software (Universal Images).
# Because our previous results indicated a role for Tea1p in the control of Bot1p function, the effect of microtubule depolymerization on Bot1p localization was assessed. […]
# [2] = biological target: GAL4 binding domain fused to SNF1p (pSE1112, pAS1-SNF1) (UniProt P04386 1-147; P06782 1-633); experiment: yeast two-hybrid (HIS3 and LACZ reporters)
# Text: (§1) The tea1 gene was fused to the DNA binding domain of GAL4 in a plasmid (pAS1) carrying the trp1 marker. The orb6 gene was fused to the DNA binding domain of GAL4 (pAS1-orb6) and to the GAL4 activator domain (pACT2-orb6). The cDNA library was cloned to the transcription activator domain of GAL4 in a plasmid (pACT) carrying the leu2 marker. Plasmids pAS1, pACT2, pSE1111 (pACT-SNF4), pSE1112 (pAS1-SNF1), pAS1-p53, pAS1-lamin and the S. pombe library prepared in phage λ vectors and plasmids pAS1-SNF1 and pAS1-lamin, both harbored in Y187 strain, were kindly provided by Dr. S. Elledge. The test for cell growth on medium lacking histidine, the beta-galactosidase activation assay and the mating test to detect interaction specificity were performed as described (14). After screening 2×10⁶ transformants, we found five proteins that interact with Orb6p and four that interact with Tea1p in this system, and that were identified multiple times in the screen. Clones containing bot1+ were isolated 22 times in the Orb6p screen and eight times in the Tea1p screen. All clones contained the full-length bot1 sequence, although they usually lacked the initial ATG codon. For beta-galactosidase activation, three independent transformants were assayed for each condition.
# (§2) To identify novel components of the Orb6p pathway, a two-hybrid screen was performed to identify cDNAs encoding proteins that interact with Orb6p. One of these, isolated 22 times in this screen, was a novel protein that we named Bot1p. […] The specificity of the positive interaction between Orb6p and Bot1p in the two-hybrid system was controlled by cotransformation of pAS1-orb6 and pACT-bot1 independently with a number of control plasmids. Co-expression of SNF1p or SNF4p was used as positive controls. Orb6p was unable to support the activation of the LACZ-GAL4 and HIS3-GAL4 promoters when co-expressed with GAL4 activation domain fused to SNF4p, or with the GAL4 activation domain (GAD) alone. Bot1p was unable to support the activation of the LACZ-GAL4 and HIS3-GAL4 promoters when co-expressed with the GAL4 binding domain fused to p53, Cdc23p, GAL4 DNA binding domain (GBD) alone, or fused to SNF1p or Cdt1p.
# [3] = biological target: T2, GAL4 binding domain fused to Cdc23p (pAS1-cdc23) (fission yeast, UniProt P04386 1-147; O42709 1-593); experiment: yeast two-hybrid (HIS3 and LACZ reporters)
# T2 construct: Two-hybrid control bait
# Text: as §1, §2
# [4] = biological target: T3, GAL4 binding domain fused to Cdt1p (pAS1-cdt1) (fission yeast, UniProt P04386 1-147; P40382 1-422, limits assumed); experiment: two-hybrid library screens with other baits; dot blotting of the isolated pACT plasmids
# T3 construct: Two-hybrid control bait
# [5] = biological target: T1, GST-tagged Tea1p (pESP-GSTtea1+); experiment: glutathione beads carrying GST-Tea1p incubated with a fission yeast extract containing HA-Cdc23p
# Procedure: Cell extracts were prepared as described. GST-Tea1p and GST were purified using glutathione beads (Molecular Probes). Beads were spun, and further incubated for 4 hr with an extract containing HA-Bot1p or a control extract containing HA-Cdc23p.
# Glutathione beads were washed three times in HB buffer and then eluted. The eluate was run on a 10% polyacrylamide gel, blotted on nitrocellulose, and probed with a primary anti-HA antibody (Covance) or, separately, with a primary anti-GST antibody (Molecular Probes) and with a horseradish peroxidase-conjugated secondary antibody (ECL, Amersham).
# To confirm this interaction between Tea1p and Bot1p in fission yeast extracts, GST-Tea1p and HA-Bot1p were co-expressed in fission yeast cells, and GST-Tea1p was purified using glutathione-coupled resin. The beads were further incubated with an extract containing HA-Bot1p or HA-Cdc23p as a control.
molecule,measurement,setting,value
"COC(=O)Nc1nc2ccccc2[nH]1 [MBC, methyl-benzidazole-carbamate]",effect on microtubule cytoskeleton,[1]; DMSO control,virtually complete microtubule depolymerization
same,Bot1p localization,[1]; DMSO control showed normal Bot1p localization at the cell tips,more spread out and less restricted to the cell tips
B1,binding result,[2],no binding
same,binding result,[3],no binding
same,binding result,[4],no binding
B2,binding result,[5],no binding
